Experiments:
[1] = target: MP-LAFG-PABC-(piperazinoBOR) LA-104 as antibody conjugate AAC-193
[2] = target: thioFAB 4497 MP-LAFAA-QSY7
[3] = target: thioFAB 4497 MP-LAFGA-QSY7
[4] = target: thioFAB S4497-MC-GGAFAGGG-(pipBOR)

B1: staphopain A (protein)
chain: YNEQYVNKLENFKIRETQGNNGWCAGYTMSALLNATYNTNKYHAEAVMRFLHPNLQGQQFQFTGLTPREMIYFEQTQGRSPQLLNRMTTYNEVDNLTKNNKGIAILGSRVESRNGMHAGHAMAVVGNAKLNNGQEVIIIWNPWDNGFMTQDAKNNVIPVSNGDHYQWYSSIYGY
B1 was tested, and the Percent cleavage pH 5 [1] was 100%, the Percent cleavage pH 7.2 [1] was 46% and the “percent cleavage at pH 7.2” value [1] was “Staphopain A showed 100% cleavage at pH5 and 64% cleavage at pH 7.2”.

B2: staphopain B (protein)
chain: DQVQYENTLKNFKIREQQFDNSWCAGFSMAALLNATKNTDTYNAHDIMRTLYPEVSEQDLPNCATFPNQMIEYGKSQGRDIHYQEGVPSYNQVDQLTKDNVGIMILAQSVSQNPNDPHLGHALAVVGNAKINDQEKLIYWNPWDTELSIQDADSSLLHLSFNRDYNWYGSMIGY
In the case of B2, the Percent cleavage pH 5 [1] is reported as 100%, the Percent cleavage pH 7.2 [1] is reported as 100% and the Percent cleavage pH 7.2 [2] is reported as 100%. The Percent cleavage pH 7.2 [3] was 100% and the “cleavage of the linker (LC-MS)” value [4] was “Staphopain B was found to cleave the linker at the same site as the active protease purified from Wood46 supernatant”.
